Experimental data taken from patent US6825001B2, “DNA molecules and protein displaying improved triazine compound degrading ability” (Regents of the University of Minnesota, priority 1997, dated 2004).
Substitutions are numbered along the chain they refer to. “Also recorded” adds a separate entry of the source.

B1: A40: AtzA homolog, nucleic acid SEQ ID NO:17, amino acid SEQ ID NO:22 (protein)
chain: MQTLSIQHGTLVTMDQYRRVLGDSWVHVQDGRIVALGVHAKSVPPPADRVIDARGKVVLPGFINAHTHVNQILLRGGPSHGRQFYDWLFNVVYPGQKAMRPEDVAVAVRLYCAEAVRSGITTINENADSAIYPGNIEAAMAVYGEVGVRVVYARMFFDRMDGRIQGYVDALKARSPQVELCSIMEETAVAKDRITALSDQYHGTAGGRISVWPAPATTTAVTVEGMRWAQAFARDRAVMWTLHMAESDHDGRIHGMSPAEYMECYGLLDERLQVAHCVYFDRKDVRLLHRHNVKVASQVVSNAYLGSGVAPVPEMVERGMAVGIGTDNGNSNDSVNMIGDMKFMAHIHRAVHRDADVLTPEKILEMATIDGARSLGMDHEIGSIETGKRADLILLDLRHPQTTPHHHLAATIVFQAYGNEVDTVLIDGNVVMENRCLSFLPPERELAFLEGAQSRATAILQRANMVANPAWRSLEMTPLLHPPPLEEIAAILARLG
B2: A44: AtzA homolog, nucleic acid SEQ ID NO:19, amino acid SEQ ID NO:24 (protein)
chain: B1 chain with K41E, G251E, C436R, G451E, P483L
B3: A46: AtzA homolog, nucleic acid SEQ ID NO:20, amino acid SEQ ID NO:25 (protein)
chain: B1 chain with K41E, R49Q, Y85H, C436R, G451E
B4: A60: AtzA homolog, nucleic acid SEQ ID NO:21, amino acid SEQ ID NO:26 (protein)
chain: B1 chain with K41E, G162R, G251E, V285I, V299A, C436R, G451E, R494Q
B5: A42: AtzA homolog, nucleic acid SEQ ID NO:18, amino acid SEQ ID NO:23 (protein)
chain: B1 chain with K41E, G251E, Y265H, V322M, C436R, G451E
B6: T7: AtzA homolog, gene SEQ ID NO:4, protein SEQ ID NO:6 (protein)
chain: SAATAALIMKASMVTLTPLFSFSLLNCTRKASRSVMSASSWLVTCGMTTQLRCRFFDGVISALRRVTHYWRHIMQTLSIQHGTLVTMDQYRRVLGDSWVHVQDGRIVALGVHAESVPPPADRVIDARGKVVLPGFINAHTHVNQILLRGGPSHGRQFYDWLFNVVYPGQKAMRPEDVAVAVRLYCAEAVRSGITTINENADSAIYPGNIEAAMAVYGEVGVRVVYARMFFDRMDGRIQGYVDALKARSPQVELCSIMEETAVAKDRITALSDQYHGTAGGRISVWPAPATTTAVTVEGMRWAQAFARDRAVMWTLHMAESDHDERIHGMSPADYMECYGLLDERLQVAHCVYFDRKDVRLLHRHNVKVASQVVSNAYLGSGVAPVPEMVERGMAVGIGTDNGNSNDSVNMIGDMKFMAHIHRAVHRDADVLTPEKILEMATIDGARSLGMDHEIGSIETGKRADLILLDLRHPQTTPHHHLAATIVFQAYGNEVDTVLIDGNVVMENRRLSFLPPERELAFLEEAQSRATAILQRANMVANPAWRSLEMTPLLHPPPLEEIAAILARLGLGGGHDLDGYRIAMNAALPSFARVESLVGEGRLRAPASRRSERPE
B7: A7: AtzA homolog, gene SEQ ID NO:3, protein SEQ ID NO:5 (protein)
chain: ASMVTLTPLFSFSLLNCTRKASRSVMSASSWLVTCGMTTQLRCRFFDGIISALRRVTHYWRHIMQTLSIQHGTLVTMDQYRRVLGDSWVHVQDGRIVALGVHAESVPPPADRVIDARGKVVLPGFINAHTHVNQILLRGGPSHGRQFYDWLFNVVYPGQKAMRPEDVAVAVRLYCAEAVRSGITTINENADSAIYPGNIEAAMAVYGEVGVRVVYARMFFDRMDGRIQGYVDALKARSPQVELCSIMEGTAVAKDRITALSDQYHGTAGGRISVWPAPATTTAVTVEGMRWAQAFARDRAVMWTLHMAESDHDERIHGMSPAEYMECYGLLDERLQVAHCVYFDRKDVRLLHRHNVKVASQVVSNAYLGSGVAPVPEMVERGMAVGIGTDNGNSNDSVNMIGDMKFMAHIHRAVHRDADVLTPEKILEMATIDGARSLGMDHEIGSIETGKRADLILLDLRHPQTTPHHHLAATIVFQAYGNEVDTVLIDGNVVMENRRLSFLPPERELAFLEEAQSRATAILQRANMVANPAWRSLEMTPLLHPPPLEEIAAILARLGLGGGHDLDGYRIAMNAALPSFARVESLVGEGRLRAPASRRSE

Experiments:
[1] = biological target: T1, wild-type AtzA protein (Pseudomonas sp., UniProt P72156); assay: substrate range of wild-type AtzA protein; format: biochemical, Pseudomonas sp. strain ADP
T1 construct: made in house; host or cells: E. coli
From the text: Enzyme Kinetics. […] HPLC analysis was done as described above.

[2] = system: Pseudomonas species strain ADP; assay: effect of ammonium chloride on atrazine clearing on solid media, Pseudomonas; format: cell-based; conditions: solid media with 500 ppm atrazine, 2 weeks, 28° C. or 37° C.
From the text: (§1) Therefore, it was not necessary to use media free of exogenous ammonia in the screening assays.

[3] = system: E. coli DH5α (pMD1 or pMD2); assay: effect of ammonium chloride on atrazine degradation, E. coli clones; format: cell-based
From the text: as §1

[4] = atrazine-degrading activity of AtzA homologs compared with wild type; conditions: compared with wild-type AtzA or parent homolog
Protocol: Serial dilutions of the transformation reaction were plated onto LB plates containing 50 μg/ml ampicillin, the remainder of the transformation was stored in 25% glycerol and frozen at −80° C.
Environ. Microbiol., 61, 1451-1457 (1995), at a final concentration of 500 μg/ml to produce an opaque suspension of small particles in the clear agar. […] Positive colonies that most rapidly formed the largest clear zones were selected initially for further analysis. The (approximately) 40 best colonies were picked, pooled, grown in the presence of 50 μg/ml ampicillin and plasmid prepared from them.
Enzyme Kinetics. […] The reactions were stopped by boiling the reaction tubes at specific times, the addition of 500 μl acetonitrile and rapid freezing at −80° C. Thawed samples were centrifuged at 14,000 rpm for 10 minutes, the supernatants were filtered through a […] filter, and placed into crimp-seal HPLC vials. HPLC analysis was done as described above.

[5] = TERBUTHYLAZINE-degrading activity of AtzA homologs; format: biochemical; conditions: compared with wild-type enzyme
Protocol: TERBUTHYLAZINE was incorporated in solid LB medium at a final concentration of about 400-500 μg/ml to produce an opaque suspension of sample particles in the clear agar. […] HPLC analysis was performed with a Hewlett Packard HP 1090 Liquid Chromatograph system equipped with a photodiode array detector and interfaced to an HP 79994A Chemstation. TERBUTHYLAZINE and its metabolites were resolved by using an analytical C^18 reverse-phase Nova-Pak HPLC column (4 μm-diameter spherical packing, 150 by 3.9 mm; Waters Chromatography, Milford, Mass.) and an acetonitrile (ACN) gradient, in water, at a flow rate of 1.0 ml min^−1. Linear gradients of 0 to 6 min, 10 to 25% ACN; 6 to 21 min, 25 to 65% ACN; 21 to 23 min, 65 to 100% ACN; and 23 to 25 min, 100% ACN were used. Spectral data of the column eluent were acquired between 200 and 400 nm (12-nm bandwidth per channel) at a sampling frequency of 640 ms. Spectra were referenced against a signal of 500 nm.
Sample 1 is a control sample without enzyme. […] Sample 3 employed the T7 homolog (SEQ ID NO:6) and Sample 4 employed the A7 homolog (SEQ ID NO:5). Results were determined by HPLC as described above. FIG. 8(a) provides the percentage of TERBUTHYLAZINE remaining after a 15 minute exposure to homologs A7, A11, and T7. Samples 1-10 refer to the effect of homolog activity in the presence of 50 uM of: Manganese (1); Mangnesium (2), EDTA (3); cobalt (4); zinc (5); iron (6); copper (7); nickel (8); no metal (9); or no eznyme (10). FIG. 8(b) provides the relative amount of hydroxyterbuthylazine as a measure of TERBUTHYLAZINE degradation for homologs A7 (solid bar), A11 (hatched bar), or T7 (open bar) in the presence or absence of additives 1-10 (supra).

T1 sequence (P72156 whole entry): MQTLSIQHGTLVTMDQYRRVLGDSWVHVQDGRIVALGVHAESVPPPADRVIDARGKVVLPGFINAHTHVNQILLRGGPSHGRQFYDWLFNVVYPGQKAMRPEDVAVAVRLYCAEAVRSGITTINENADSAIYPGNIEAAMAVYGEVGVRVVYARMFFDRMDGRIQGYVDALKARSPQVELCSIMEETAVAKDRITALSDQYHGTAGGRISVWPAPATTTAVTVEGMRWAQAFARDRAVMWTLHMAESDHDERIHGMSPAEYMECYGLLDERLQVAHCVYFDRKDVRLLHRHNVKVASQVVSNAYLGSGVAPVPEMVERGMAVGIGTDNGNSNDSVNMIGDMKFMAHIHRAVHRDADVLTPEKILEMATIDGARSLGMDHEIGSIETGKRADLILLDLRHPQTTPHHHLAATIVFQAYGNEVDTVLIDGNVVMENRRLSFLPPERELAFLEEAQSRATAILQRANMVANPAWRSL

Molecule	degradation of substrate by wild-type AtzA protein (in words) [1]	atrazine degradation activity (in words) [4]	TERBUTHYLAZINE degradation activity (in words) [5]	other results
CCNc1nc(Cl)nc(NC(C)(C)C)n1 [TERBUTHYLAZINE, 2-chloro-4-(ethylamino)-6-(tertiarybutyl-amino)-1,3,5-triazine]	only poorly degraded	–	–	–
Nc1nc(N)nc(N)n1 [MELAMINE, 2,4,6-triamino-s-triazine]	did not degrade	–	–	–
CC(C)Nc1nc(N)nc(Cl)n1 [desethylatrazine, 2-chloro-4-amino-6-isopropylamino-s-triazine]	acts on	–	–	–
CCNc1nc(Cl)nc(NCC)n1 [SIMAZINE, 2-chloro-4,6-diethylamino-s-triazine]	acts on	–	–	–
CCNc1nc(N)nc(Cl)n1 [Desisopropylatrazine, 2-chloro-4-ethylamino-6-amino-s-triazine]	acts on	–	–	–
Nc1nc(N)nc(Cl)n1 [Desethyldesisopropylatrazine, 2-chloro-4,6-diamino-s-triazine]	did not degrade	–	–	–
Cl.N [ammonium chloride]	–	–	–	ammonium chloride concentration sufficient to inhibit visible clearing [2]: 0.6 to 1.2 mM; ammonium chloride tolerance relative to wild type ([3]; E. coli clones vs Pseudomonas strain ADP): 40-80 fold; effect of inorganic nitrogen source on atrazine degradation (in words) ([3]; atzA fragments expressed in E. coli): unaffected; ammonium chloride concentration at which atrazine degradation was still observed ([3]; solid media with atrazine): ≤ 48 mM
CCNc1nc(Cl)nc(NC(C)C)n1 [atrazine, 2-chloro-4-(ethylamino)-6-(isopropylamino)-1,3,5-triazine]	acts on	–	–	–
B1	–	improved rate of catalytic activity	–	–
B2	–	improved rate of catalytic activity	capable of better degrading	–
B3	–	improved rate of catalytic activity	capable of better degrading	–
B4	–	improved rate of catalytic activity	capable of better degrading	–
B5	–	improved rate of catalytic activity	capable of better degrading	–
B6	–	enhanced atrazine degradation activity	better than the wild-type enzyme; also recorded: enhanced TERBUTHYLAZINE degradation activity	–
B7	–	enhanced atrazine degradation activity	better than the wild-type enzyme; also recorded: enhanced TERBUTHYLAZINE degradation activity	–
